assay: soluble on expression in E. coli; label from the status in PepcDB or PDB records

Row | Sequence | soluble on expression in E. coli
1 | MSLTDKMQSLALAPVGNLDSYIRAANAWPMLSADEERALAEKLHYHGDLEAAKTLILSHLRFVVHIARNYAGYGLPQADLIQEGNIGLMKAVRRFNPEVGVRLVSFAVHWIKAEIHEYVLRNWRIVKVATTKAQRKLFFNLRKTKQRLGWFNQDEVEMVARELGVTSKDVREMESRMAAQDMTFDLSSDDDSDSQPMAPVLYLQDKSSNFADGIEDDNWEEQAANRLTDAMHGLDERSQDIIRARWLDEDNKSTLQELADRYGVSAERVRQLEKNAMKKLRAAIEAEGHHHHHH | soluble
2 | MSLTEKTDQTLMLIDGHSMAFRAFFALPAENFSTSGGQATNAVYGFLSMLSTLLKDEQPTHVAVAFDVGRKTFRTDMFPAYKAQREATPPEFKGQVEILKEVLSTLGITTIEKIDFEADDVIATLSVAAKPLGFKTLIVTGDRDSFQLVNDTTTVLYPMKGVSVLHRFTPEAVEEKYGLTPRQYPEFAALRGDPSDNLPNIPGVGEKTATKWIAQYETLDNLLDHADEIKGKVGASLRERIEQVRMNRKLTEMVKDLELPLGPDDFEMKPVQVAEVAAKFDDLEFGTNLRERVLAVVKAEGSAAPVEEVEAEQVVVDTQSLAQWLPARAGQALALALAGVAKPAAGDTYALAIADTKRHAVLVDVADISAEDEKALATWLASEDPKMLHGAKAAYHMLAGRGFELHGVVHDTAIAAYLLRPGQRTYELADVYQRHLQRQLSTNDNGGQLTLLDAADDQSLVDDVIAILELSEELTKQLQEIQAFELYHDLEIPLSGILARMEAIGEGHHHHHH | soluble
3 | MSLTETQSLELAKELISRPSVTPDDRDCQKLMAERLHKIGFAAEEMHFGNTKNIWLRRGTKAPVVCFAGHTDVVPTGPVEKWDSPPFEPAERDGRLYGRGAADMKTSIACFVTACERFVAKHPNHQGSIALLITSDEEGDALDGTTKVVDVLKARDELIDYCIVGEPTAVDKLGDMIKNGRRGSLSGNLTVKGKQGHIAYPHLAINPVHTFAPALLELTQEVWDEGNEYFPPTSFQISNINGGTGATNVIPGELNVKFNFRFSTESTEAGLKQRVHAILDKHGVQYDLQWSCSGQPFLTQAGKLTDVARAAIAETCGIEAELSTTGGTSDGRFIKAMAQELIELGPSNATIHQINENVRLNDIPKLSAVYEGILVRLLAGNAVEGGSHHHHHH | soluble
4 | MSLTGREKNPSLTAKELEGGLLIVDEMSMVDTWLANTLLKAIPTNMQVIFVGDKDQLPSVGPGQVLHDLLQINEIPKCELNEIYRQGDGSSIIPLAHEIKEGKLPADFQKNQKDRSFFASDIGHIEEYIRQIVTKAKAKGFTPQDIQVLAPMYRGAAGIDALNKMMQEIFNPNDGKKKEVKWNDTVYRIGDKVLQLVNTPELNVFNGDMGEIVGITLAKDSEDKVDELVLQFDNNEVTYKRNEWNKITLSYCCSIHKAQGSEFRMVLLPMVHQYSRMLQRNLLYTAVTRSKELLILLGEVSAFETCVKNESASRMTMLKERIVNAEQEGHHHHHH | not soluble
5 | MSLTIKLIAIDIDGTLLNEKNELAQATIDAVQAAKAQGIKVVLCTGRPLTGVQPYLDAMDIDGDDQYAITFNGSVAQTISGKVLTNHSLTYEDYIDLEAWARKVRAHFQIETPDYIYTANKDISAYTIAESYLVRMLIQYREVSETPRDLTISKAMFVDYPQVIEQVKANMPQDFKDRFSVVQSAPYFIEVMNRRASKGGTLSELVDQLGLTADDVMTLGDQGNDLTMIKYAGLGVAMGNAIDEVKEAAQAVTLTNAENGVAAAIRKYALNEGHHHHHH | soluble
6 | MSLTKIVLITGANKGIGFETAKQIGKNGWTLLISTRNEERGKNAVHQLQQDGITAEWLQIDLNDIASIHKAARYVEERYPKLDGLINNAGISGDMQKNPLELKSSELEQLAKVNFLGNFEMIKSFTPILSRNHGRILNVTIPATPIGSFNPLGYLASKASLNSMIKSFAMYYKKHEIPVEIFGVLPGGISTDLNQHQSGLLIRTVQEGGESIAKVMMDRHNHQGKLLMRMGLTQLARNFVFRRHDEGHHHHHH | not soluble
7 | MSLTLPSEKPATDVAAQCFLNALIRETTDWKLTEYPPDELIIPLDEQKSLHFRVAYFSPTQHHRFAFPARLVTASGSYPVDFTTLSRLIIDKLRHQLFLPVPLCETFHQRVLESHAHTQQAIDARHDWTALREKALNFGEAEQALLTGHAFHPAPKSHEPFNRREAERYLPDMAPHFPLRWFSVDKTQIAGESLHLNLQQRLTRFAAENAPQLLNELSDNQWLFPLHPWQGEYLLQQGWCQALVAKGLIKDLGEAGTSWLPTTSSRSLYCATSRDMIKFSLSVRLTNSIRTLSVKEVKRGMRLARLAQTDGWQMLQVRFPTFRVMQEDGWAGLLDLNGNIMQESLFALRENLLVDQPKSQTNVLVSLTQAAPDGGDSLLVSAVKRLSDRLGITVQQAAHAWVDAYCQQVLKPLFTAEADYGLVLLAHQQNILVQMLGDLPVGFIYRDCQGSAFMPHATDWLDSIGEAQAENIFTHEQLLRYFPYYLLVNSTFAVTAALGAAGLDSESNLMARVRASLAEVRDQVTHKTCLNYVLESPYWNVKGNFFCYLNDHNENTIVDPSVIYFDFANPLQAQEGHHHHHH | soluble
8 | MSLTMVQVTLEVNGRQVAHEAPPRMHLGDFLRDQARLTGTHLGCEHGVCGACTVLVDGQPVRSCITYAVACEGRQVTTIEGYDGDPVMARLRAAFTKYHALQCGYCTPGMLTTSRDIVLRLPDADEARVRVELSGNLCRCTGYMGIVGAVMSVLRDLREQPDAAVQALRAAAADGRLPAPRGEQPIAFQPFTPSAPSGKGNQIVDAFTVPFPAAEVWAFMVDLPAVAACLPGAVIEETDGQRVKGKIAIKFGPMAAAFNGAARLERDEAAMRAVFRGAGQDSLSQSRATGDIAYQVEAVSENETRVKVDLQYALQGPLAQFSRSGLVQDFVRRMIADFGKNVTARLREGHHHHHH | soluble
9 | MSLTMYADLVLHGGSIATLDDKLEQAQAVAIAAGRIIAVGSDAHCLALAGPGTRRIGLGGACVMPGINDSHCHPDGQAVKAGRWDDVSQVATQQALLARIADFHRRMPAGAWYLGFRFDDTHSGGYPARQALEQAAPGRPVFLLRRDAQVGLASAPALAALLASGLATQVPPHCLDAATGLARGRGVFAFTTHIAAADSLDDYLEGFPTLFAEMGRMGITSVHNALTSALAVQAYRALHGAGRLPVRVGMMLNGRDQRLVDETLAAGLRFGAGDDRLYLLGVEYGSDGSTSGRTAAYYQPYVGEEGGDGRPANRGDVNFSAEDLAAKVGRVMAAGLQAAATGNGDRGIDFALDAFEQGLRAHPGAVPPRIEHCCCAPPAIQQRMAALGVIDSSAAGFAYNLGDAYLRNRPSAEMAWMWPHRDMLDRGVLVCAHSDAPVCERNPFLGMWSMVTRKTASGASLGAGQAITPLEAMRCYTANPARAEGQAARKGTLSPGKLADLIVLDRDPCAVDPDEIRHTQVLATLVGGQATYRAAGAPSWADELPMREEGHHHHHH | soluble
10 | MSLTNDYRFEFRPYQRRFLRSLTTNHGKWDIREGIILRLTDETLRVGWGEIAPISWFGSETLEQVLDFCRQLPGEITDETIFSIPDELPACQFGFESAWEWGSWKWGNEFFSMPNAQCPMPNAQSFSALLPFGEAALNQWETLWQKGYRTFKWKIGVDAIADELKIFESLTRILPASTKLRLDANGGLSYEEANLWLRTCDNLKANAELPLEIEFIEQPLPVEQFQQMLELSTSYETAIALDESVATLKQLAACHQQGWREIFVIKPGIVGSPSRLRKFCHQHQIDTVFSSVLETAIGRLAALQIAAELSRNNRAIGFGIDHFFEQEETWFQTLWNDLEGHHHHHH | soluble
11 | MSLTNEPLASRMRPNNIDEIISQEHLVGPKGIIRRMVETKRLSSMIFYGPPGIGKTSIAKAISGSTQFKFRQLNAVTNTKKDMQLIVEEAKMSGQVILLLDEIHRLDKAKQDFLLPHLENGKIVLIGATTSNPYHAINPAIRSRAQIFELYPLDENDVRVSLDRALNDSERGLASYNPKVDEDAMAYFTTQSQGDVRSALNALELAVLSSENIDQQRHITLQDAKDCLQKGAFVSDKDGDMHYDVMSAFQKSIRGSDVNAALHYLARLIEAGDLPTIVRRLLVISFEDVGLASPSAGQRTLAAIESAERLGFPEARIPLSQAVIELCLSPKSNSGINAIDAALSDIRKGHVGQIPDHLKDGHYAGAKELGRSIGYKYPHNYENGFVTQQYLPMKLKNRIYYEPKTTSKSEQQFKAVFDHINQSQQKNKEGHHHHHH | not soluble
12 | MSLTPFGVRSVVFDPDKGLVINGEHVPIRGVNNHHDLGALGAAFNVRAAERQLQLLQQMGANAIRMSHNPPAPELLELTDRMGLLVVDEVFDSWEMKKTPLDFHLIFPQWHEPDLRAMLRRDRNHPSIILWSVGNEVGEQYTGEAGAAIARRLHAIVHAEDPTRPATAAMNYASPEMPLPAALDVISLNYQGEGIRDTPEFEGTERIRKPPQYPAFHAKFPRKAILSSETASALSSRGVYLFPVSAQSSAPVRDGRGGDSVAHQVSAYELHAVDFGSSADKVFAALDRHPFVAGEFVWTGFDYLGEPTPYYSSRSSYSGILDLAGFPKDRYWLYQARWRPELPMAHLLPHWSWPGREGQVTPVHVFTSGDEAELFVNGVSQGRKRKAPLQYRLRWDAVVYQPGELRVQAYKHGRPWASDRVQTAGRATRMQLSADRNQIRGDGKDLSFITVRLLDADGRPAPTAGDRLRFRVEGAGELVATDNGDPTNLEAFVLPEREGHHHHHH | soluble
13 | MSLTPTVMVVDESRITFLAVKNALEKDGFNVIWAKNEQEAFTFLRREKIDLVFVDVFEGEESLNLIRRIREEFPDTKVAVLSAYVDKDLIINSVKAGAVDYILKPFRLDYLLERVKKIISSTPRVTVSLRKNIEDLEITLKFEDIVRKEIKRSNRTGSRFCVMYVKFEDIMRDYETIKKFFRETDYVLPISASEYLFVLTLTGKHGIEAVTRRMKEKLSERFSYTYVCYPDDGKTYEEIILTLKDRMAKPRGEGHHHHHH | soluble
14 | MSLTQHTRNFSFKVLTINTHKGFTAFNKRFILPELRDAVRTVGADIVCLQEVMGAHEVHPLHIENWPDTTHYEFLADTMWSDFAYGRNAVYPEGHHGNAVLSRYPIEHYENRDVSVGGSEKRGVLYCRITPPMLNRPIHVMCVHLGLRESHRQAQLTMLAGWVNALPESEPVLVAGDFNDWRQKAGPPLNAAGLEEIFTRAHGRPARTFPVSMPLLRLDRIYVKNANASSPTALPLRNWRHLSDHAPLSAEIHLEGHHHHHH | soluble
15 | MSLTQIFAHRGSKVDCPENTLAAFKKAIQVGCDGIEIDVHRTKDNQLVVIHDEAVDRTSNGSGLVRQLTLKQIRMLDAGSWFHPAYFCEKIPTLEEVLNFLEESGFQGTLNLEIKTNRYPYPKIEKQIAQTMQAKKRSFSHIYSSFNLFSLYVMRKHDPKAELAYLMKFHPFHFWLAQQLKFIKTVHSHSSFYENQVTKRKNKKPFRLWTVNNDDDMKKFFLSGIEGIITDKPEEAVKLRKSLQTKEGHHHHHH | not soluble
16 | MSLTQVHFTLKSEEIQSIIEYSVKDDVSKNILTTVFNQLMENQRTEYIQAKEYERTENRQSQRNGYYERSFTTRVGTLELKVPRTRDGHFSPTVFERYQRNEKALMASMLEMYVSGVSTRKVSKIVEELCGKSVSKSFVSSLTEQLEPMVNEWQNRLLSEKNYPYLMTDVLYIKVREENRVLSKSCHIAIGITKDGDREIIGFMIQSGESEETWTTFFEYLKERGLQGTELVISDAHKGLVSAIRKSFTNVSWQRCQVHFLRNIFTTIPKKNSKSFREAVKGIFKFTDINLAREAKNRLIHDYIDQPKYSKACASLDDGFEDAFQYTVQGNSHNRLKSTNLIERLNQEVRRREKIIRIFPNQTSANRLIGAVLMDLHDEWIYSSRKYINFDKEGHHHHHH | soluble
